Target: JUNV GP1 (receptor-binding domain), subunit within the GPC on PV membranes (Junin mammarenavirus, strain MC2 …, UniProt P26313)
Assay: cryo-EM structure
Details: one partner purified

JUNV GP1 (receptor-binding domain), subunit within the GPC on PV membranes, sequence (P26313 whole entry, looked up, the tested form may be a part): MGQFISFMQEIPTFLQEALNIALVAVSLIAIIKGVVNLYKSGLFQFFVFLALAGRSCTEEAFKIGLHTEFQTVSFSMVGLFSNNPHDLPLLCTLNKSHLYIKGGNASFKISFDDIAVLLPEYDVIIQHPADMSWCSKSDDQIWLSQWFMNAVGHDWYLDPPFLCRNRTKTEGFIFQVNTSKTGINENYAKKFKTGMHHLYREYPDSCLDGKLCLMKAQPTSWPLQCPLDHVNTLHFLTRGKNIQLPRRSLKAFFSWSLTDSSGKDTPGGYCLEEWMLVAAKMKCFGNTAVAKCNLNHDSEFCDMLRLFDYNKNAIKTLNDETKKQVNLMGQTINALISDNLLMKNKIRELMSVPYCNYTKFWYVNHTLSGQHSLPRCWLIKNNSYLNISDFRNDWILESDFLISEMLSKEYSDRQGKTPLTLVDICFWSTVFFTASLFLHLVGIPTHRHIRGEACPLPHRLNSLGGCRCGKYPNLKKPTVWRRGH

B1: GB03-BE08 (J199) Fab (Fab, V domains shown)
VH: VALVESGGGLVQPGGSLKLSCASGASFSNAGMSWVRQTPDRRLELVAAINRDGDITYHPDSVKGRFTISRDNAKNTLYLQMSSLKSEDTAMYYCAREDYYGLYFYVMDYWGQGTSVTVA
VL: QIVLTQSPAIMSASPGEKVTITCSASSIVSYMHWFQQKPGTSPKLWIYGTSNLASGVPARFSGSGSGTSYSLTISRMEAEDAATYYCQQRNSYPPTFGGGTKLEIK
notes: source: bought: BEI Resources (J199), ficin digested, dialyzed into TBS pH 8
binding result: binds

B2: GFP-fused Fab of the neutralizing antibody CR1-28 (Fab, V domains shown)
VH: QVQLVESGGGVVQPGRSLRLSCAASGFTFSSSAMHWVRQAPGKGLEWVAVIWSDGSNENYADSVKGRFTISRDNSKNTLYLQMSSLRAEDTAVYYCATDKTYVSGYTSTWYYFNYWGQGTLVTVSG
VL: DIQMTQSPSTLSASVGDRVTITCRASQSIDNWLAWYQQKPGKAPKLLIYTASRLESGVPSRFSGSGSGTEFTLTISSLQPDDFATYYCQHRTFGQGTKVEIK
notes: also called CR1–28Fab; GFP-fused CR1–28Fab; source: HEK293T, transfected, purified from culture media (Ni-NTA)
binding result: binds

— paper PMC12450071 (Cell reports, 2025)
